Molecular target: T1, thioredoxin (Escherichia coli (strain K12), UniProt P0AA25 2-109 = thioredoxin)
T1 construct: Negative control antigen; also called Trx; TrxA
Assay: ELISA (FIG. 64)

T1 sequence (P0AA25 2-109 limits assumed): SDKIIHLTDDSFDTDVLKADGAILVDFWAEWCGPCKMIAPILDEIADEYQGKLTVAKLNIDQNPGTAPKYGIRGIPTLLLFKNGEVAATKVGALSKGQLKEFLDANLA

B1: mouse human chimeric anti-R273H p53 antibody clone MH 13E4 (antibody, human IgG1, V domains shown)
VH: EVQLLETGGDLVTPGGSLKLSCAASGFSFSDYYMYWVRQTPEKRLEWVATISVGGTYTFYSDNVKGRFVISRDNARKNLHLEMNSLKSEDAAMYYCVRDGNDGKFLGYWGQGTFVTVTV
VL: DIVMTQSPLSLPVNLGDQVSLSCRSSQSIVHNNGDTYLEWYLQKPGQSPKLLIYKVSNRFSGVPDRFSGSGSGTDFTLKISRVEAEDLGIYYCFQGSHLPLTFGSGTKLELK
notes: Mouse Fv with human IgG1 constant region; also called chimeric 13E4
binding result: no binding (tested: 1 ng/µl)

Source: patent US20230257457A1 (published 2023)
